Sequences and labels used below:
B1: Pyruvate dehydrogenase E1 component subunit alpha, somatic form, mitochondrial (Homo sapiens), P08559-1 (parent)
chain: MRKMLAAVSRVLSGASQKPASRVLVASRNFANDATFEIKKCDLHRLEEGPPVTTVLTREDGLKYYRMMQTVRRMELKADQLYKQKIIRGFCHLCDGQEACCVGLEAGINPTDHLITAYRAHGFTFTRGLSVREILAELTGRKGGCAKGKGGSMHMYAKNFYGGNGIVGAQVPLGAGIALACKYNGKDEVCLTLYGDGAANQGQIFEAYNMAALWKLPCIFICENNRYGMGTSVERAAASTDYYKRGDFIPGLRVDGMDILCVREATRFAAAYCRSGKGPILMELQTYRYHGHSMSDPGVSYRTREEIQEVRSKSDPIMLLKDRMVNSNLASVEELKEIDVEVRKEIEDAAQFATADPEPPLEELGYHIYSSDPPFEVRGANQWIKFKSVS
partner: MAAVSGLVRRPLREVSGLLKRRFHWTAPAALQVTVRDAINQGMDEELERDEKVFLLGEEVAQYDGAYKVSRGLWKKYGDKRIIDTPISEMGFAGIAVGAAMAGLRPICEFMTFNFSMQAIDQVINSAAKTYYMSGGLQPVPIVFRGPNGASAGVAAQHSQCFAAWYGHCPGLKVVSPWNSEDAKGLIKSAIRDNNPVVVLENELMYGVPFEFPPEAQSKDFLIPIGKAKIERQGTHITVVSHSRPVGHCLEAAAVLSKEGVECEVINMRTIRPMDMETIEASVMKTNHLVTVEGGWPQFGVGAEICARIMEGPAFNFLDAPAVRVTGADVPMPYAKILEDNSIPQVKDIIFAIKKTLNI

This assay covers variants of B1. The following applies: with PDHB.
For Y118F, the “effect of a mutation on the interaction” value is recorded as “with no effect”.

On to S232A;S300A, for which the “effect of a mutation on the interaction” value is listed as “with no effect”.

For the origin of these results see IntAct's records for PubMed 19081061.
